Source: patent US9290794B2, “Mutant protease biosensors with enhanced detection characteristics” (PROMEGA CORPORATION, priority 2010, dated 2016)

Test system: caspase-3
Assay: CBS variants transiently transfected in HEK293 cells, kinetic luminescence response to TRAIL treatment
Format: cell-based
Details: for RESPONSE, IMPROVEMENT OVER TL-CP358-DEVD:DD: ratio of INDUCED to BASAL; for BASAL, IMPROVEMENT OVER TL-CP358-DEVD:DD: time (0); for greater RESPONSE compared with TL-CP358-DEVD:DD: live cells (FIGS. 2, 3)
Source text: The Caspase-3 BioSensor (CBS) is a thermostable Photuris pennsylvanica luciferase (TL), circularly-permuted (CP) at amino acid 358, with a caspase-3 recognition site, i.e., one containing the caspase-3 recognition site comprising amino acids DEVD, at the junction between the TL fragments. The specific CBS that was used as the starting template is termed TL-CP358-DEVD:DD. The amino acid sequence of this CBS can be represented as: M/TL residues 358-544/SDEVDGSL/TL residues 4-354/V (SEQ ID NO:6). The amino acid positions in the CP TL correlate to those of the non-CP TL sequence (provided in the attached appendix). Upon treatment with caspase-3, CBS is cleaved at the recognition site allowing the two TL fragments to form a more favorable, higher activity, conformation.
The utility of CBS is the differential activity before and after cleavage by caspase-3. The basal activity of CBS is defined as the activity at assay time (O), before caspase-3 has had time to cleave at the recognition site. The induced activity is defined as the activity at some later time (t) after CBS has been cleaved by caspase-3. The response or fold increase in activity, is the ratio of induced to basal activity. Substitutions in TL-CP358-DEVD:DD were generated to develop CBS variants with enhanced responsivity to induction using the error-prone, mutagenic PCR-based system GeneMorph II (Stratagene; Daugherty, PNAS USA 97(5):2029 (2000)), according to manufacturer's instructions.
The resulting library was expressed in E. coli and screened for luciferase activity with and without pre-treatment with recombinant caspase-3 (data not shown). CBS variants having the best signal and response characteristics were then evaluated in HEK293 cells by kinetic assay measuring the response to TNF-α-related apoptosis inducing ligand (TRAIL) treatment (Wiley, S. R. et al., Immunity 3:673 (1995); Niles, A. L. et al., Meth. Mol. Biol. 414:137 (2008)). TRAIL induces apoptosis via activation of the death receptor to form active caspase-8, which in turn activates procaspase 3 to produce caspase-3. The appearance of active caspase-3 should be accompanied by an increase in luminescence as the CBS variants are cleaved and activated. Briefly, HEK293 cells, plated at 15,000 cells/well in a 96-well plate, were transiently transfected using TransIT-LTI (Mires Bio) with plasmid DNAs encoding various CBS variants with amino acid substitutions in TL-CP358-DEVD:DD. The same plasmids also carried a gene for constitutive expression of Renilla luciferase to act as a transfection control. Cells were pretreated with 2 mM luciferin for 2 hrs at 37° C. Cells were treated with 1 μg/mL TRAIL and assayed for 10 hrs at 37° C. Luminescence was monitored continuously over time (Luminometer: Varioskan Flash (Thermo) 1 sec integration time). Cells in replicate wells were lysed, at the time of TRAIL addition, i.e., time (0) and Renilla luciferase activity was measured. All biosensor data was then normalized for transfection efficiency using Renilla luciferase luminescence (Dual-GloAssay System; Promega Corporation).
Table 1 lists the variants of TL-CP358-DEVD:DD, identified by clone name, showing improved response to TRAIL treatment. Improvements listed in Table 1 are normalized to the parental TL-CP358-DEVD:DD CBS. “BASAL” represents the normalized biosensor luminescence at TRAIL addition, i.e., time (0), “INDUCED” represents the normalized biosensor luminescence at roughly 10 hrs after TRAIL addition, and “RESPONSE” represents the fold-induction, i.e., the ratio of INDUCED to BASAL activity.
Additional CBS variants were generated using the oligo-based site-directed mutagenesis kit Quik Change (Stratagene; Kunkel, PNAS USA 82(2):488 (1985)), according to the manufacturer's instructions. […]

[1] = Table 2 combination variants, roughly 10 hrs after TRAIL, HEK293
[2] = Table 2 combination variants, HEK293 as in Example I

B1: 01:A-05: CBS variant of TL-CP358-DEVD:DD, 507TI (SEQ ID NOs:7 and 8) (protein)
chain: MPGSTGKIVPLHAVKVVDPTTGKILGPNEPGELYFKGPMIMKGYYNNEEATKAIIDNDGWLRSGDIAYYDNDGHFYIVDRLKSLIKYKGYQVAPAEIEGILLQHPYIVDAGVTGIPDEAAGELPAAGVVVQTGKYLNEQIVQDYVASQVSIAKWLRGGVKFLDEIPKGSTGKIDRKVLRQMLEKHTNGSDEVDGSLKNILYGPEPFYPLEDGTAGEQMFDALSRYAAIPGCIALTNAHTKENVLYEEFLKLSCRLAESFKKYGLKQNDTIAVCSENSLQFFLPVIASLYLGIIVAPVNDKYIERELIHSLGIVKPRIVFCSKNTFQKVLNVKSKLKSIETIIILDLNEDLGGYQCLNNFISQNSDSNLDVKKFKPYSFNRDDQVASIMFSSGTTGLPKGVMLTHKNIVARFSIAKDPTFGNAINPTSAILTVIPFHHGFGMMTTLGYFTCGFRVVLMHTFEEKLFLQSLQDYKVESTLLVPTLMAFLAKSALVEKYDLSHLKEIASGGAPLSKEIGEMVKKRFKLNFVRQGYGLTETTSAVLITPKGV
B1 was tested, and the “RESPONSE, IMPROVEMENT OVER TL-CP358-DEVD:DD” value (Table 1, fold-induction, normalized to parental) was 3.6 fold, the “BASAL, IMPROVEMENT OVER TL-CP358-DEVD:DD” value (Table 1, normalized biosensor luminescence at TRAIL addition, HEK293, normalized to parental) was 0.2 fold and the “INDUCED, IMPROVEMENT OVER TL-CP358-DEVD:DD” value (Table 1, normalized luminescence roughly 10 hrs after 1 μg/mL TRAIL, HEK293, normalized to parental) was 0.6 fold. For the same molecule, the “greater RESPONSE compared with TL-CP358-DEVD:DD” value (after 2 hrs TRAIL treatment) was 2 times and the “greater RESPONSE compared with TL-CP358-DEVD:DD” value (after 10 hrs TRAIL treatment) was “about 4.8 times”.

B2: FC7: 24: CBS variant, 193SP 471IT 503SG 507TI (SEQ ID NOs:9 and 10) (protein)
chain: MPGSTGKIVPLHAVKVVDPTTGKILGPNEPGELYFKGPMIMKGYYNNEEATKAIIDNDGWLRSGDIAYYDNDGHFYIVDRLKSLIKYKGYQVAPAEIEGILLQHPYIVDAGVTGTPDEAAGELPAAGVVVQTGKYLNEQIVQDYVAGQVSIAKWLRGGVKFLDEIPKGSTGKIDRKVLRQMLEKHTNGSDEVDGSLKNILYGPEPFYPLEDGTAGEQMFDALSRYAAIPGCIALTNAHTKENVLYEEFLKLSCRLAESFKKYGLKQNDTIAVCSENSLQFFLPVIASLYLGIIVAPVNDKYIERELIHSLGIVKPRIVFCSKNTFQKVLNVKSKLKSIETIIILDLNEDLGGYQCLNNFISQNSDSNLDVKKFKPYSFNRDDQVAPIMFSSGTTGLPKGVMLTHKNIVARFSIAKDPTFGNAINPTSAILTVIPFHHGFGMMTTLGYFTCGFRVVLMHTFEEKLFLQSLQDYKVESTLLVPTLMAFLAKSALVEKYDLSHLKEIASGGAPLSKEIGEMVKKRFKLNFVRQGYGLTETTSAVLITPKGV
For B2, the “RESPONSE, IMPROVEMENT OVER TL-CP358-DEVD:DD” value (Table 2 combination variants) was 5.480 fold, the “INDUCED, IMPROVEMENT OVER TL-CP358-DEVD:DD” value [1] was 0.191 fold and the “BASAL, IMPROVEMENT OVER TL-CP358-DEVD:DD” value [2] was 0.035 fold. The “greater RESPONSE compared with TL-CP358-DEVD:DD” value (after 2 hrs TRAIL treatment) was “about 2 times”.

B3: FC7: 49: CBS variant, 193SP 503SG 507TI (SEQ ID NOs:13 and 14) (protein)
chain: MPGSTGKIVPLHAVKVVDPTTGKILGPNEPGELYFKGPMIMKGYYNNEEATKAIIDNDGWLRSGDIAYYDNDGHFYIVDRLKSLIKYKGYQVAPAEIEGILLQHPYIVDAGVTGIPDEAAGELPAAGVVVQTGKYLNEQIVQDYVAGQVSIAKWLRGGVKFLDEIPKGSTGKIDRKVLRQMLEKHTNGSDEVDGSLKNILYGPEPFYPLEDGTAGEQMFDALSRYAAIPGCIALTNAHTKENVLYEEFLKLSCRLAESFKKYGLKQNDTIAVCSENSLQFFLPVIASLYLGIIVAPVNDKYIERELIHSLGIVKPRIVFCSKNTFQKVLNVKSKLKSIETIIILDLNEDLGGYQCLNNFISQNSDSNLDVKKFKPYSFNRDDQVAPIMFSSGTTGLPKGVMLTHKNIVARFSIAKDPTFGNAINPTSAILTVIPFHHGFGMMTTLGYFTCGFRVVLMHTFEEKLFLQSLQDYKVESTLLVPTLMAFLAKSALVEKYDLSHLKEIASGGAPLSKEIGEMVKKRFKLNFVRQGYGLTETTSAVLITPKGV
In the case of B3, the “RESPONSE, IMPROVEMENT OVER TL-CP358-DEVD:DD” value (Table 2 combination variants) is reported as 5.115 fold, the “INDUCED, IMPROVEMENT OVER TL-CP358-DEVD:DD” value [1] is reported as 0.852 fold and the “BASAL, IMPROVEMENT OVER TL-CP358-DEVD:DD” value [2] is reported as 0.167 fold. The “greater RESPONSE compared with TL-CP358-DEVD:DD” value (after 2 hrs TRAIL treatment) was “about 2 times”.
